Results published in patent publication US20190263932A1.

Molecular target: human TrkA receptor expressed in transfected 3T3 fibroblast cells (human), P04629
Experiment: cell-based or functional assay

Sequence of human TrkA receptor expressed in transfected 3T3 fibroblast cells (human), P04629 (P04629 33-796): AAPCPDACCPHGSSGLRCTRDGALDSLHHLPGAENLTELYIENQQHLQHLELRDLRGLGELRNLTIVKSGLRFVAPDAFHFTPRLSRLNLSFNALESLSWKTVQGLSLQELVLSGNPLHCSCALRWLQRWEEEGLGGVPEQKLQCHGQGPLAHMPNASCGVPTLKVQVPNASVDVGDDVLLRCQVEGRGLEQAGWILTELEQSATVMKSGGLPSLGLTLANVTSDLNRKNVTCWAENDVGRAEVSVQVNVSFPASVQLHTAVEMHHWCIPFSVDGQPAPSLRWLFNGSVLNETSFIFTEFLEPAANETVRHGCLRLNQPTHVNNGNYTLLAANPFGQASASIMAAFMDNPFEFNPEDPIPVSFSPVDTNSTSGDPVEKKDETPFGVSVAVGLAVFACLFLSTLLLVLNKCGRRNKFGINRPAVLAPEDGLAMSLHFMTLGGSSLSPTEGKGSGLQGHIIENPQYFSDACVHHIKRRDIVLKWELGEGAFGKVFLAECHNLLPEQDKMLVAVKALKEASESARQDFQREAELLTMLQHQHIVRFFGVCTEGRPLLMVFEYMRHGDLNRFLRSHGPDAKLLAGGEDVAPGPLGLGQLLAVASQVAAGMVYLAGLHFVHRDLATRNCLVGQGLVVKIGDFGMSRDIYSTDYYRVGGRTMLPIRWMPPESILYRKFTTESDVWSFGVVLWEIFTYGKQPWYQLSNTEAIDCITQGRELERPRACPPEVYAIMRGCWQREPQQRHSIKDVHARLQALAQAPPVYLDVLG

B1: mAb D (antibody, human IgG1, kappa)
heavy: EVQLVESGGGLVKPGGSLRLSCAASGFTFSGVSINWVRQAPGKGLEWVSSETTSSGTIYYADSVKGRFTISRDNAKNSLYLQMNSLRAEDTAVYYCARSYYYGMDVWGQGTTVTVSSASTKGPSVFPLAPSSKSTSGGTAALGCLVKDYFPEPVTVSWNSGALTSGVHTFPAVLQSSGLYSLSSVVTVPSSSLGTQTYICNVNHKPSNTKVDKRVEPKSCDKTHTCPPCPAPEAEGAPSVFLFPPKPKDTLMISRTPEVTCVVVDVSHEDPEVKFNWYVDGVEVHNAKTKPREEQYNSTYRVVSVLTVLHQDWLNGKEYKCKVSNKALPSSIEKTISKAKGQPREPQVYTLPPSREEMTKNQVSLTCLVKGFYPSDIAVEWESNGQPENNYKTTPPVLDSDGSFFLYSKLTVDKSRWQQGNVFSCSVMHEALHNHYTQKSLSLSPGK
light: DIVMTQTPLSSPVTLGQPASISCRSSQSLVHRAGNTYLSWLQQRPGQPPRLLIYKISNRFSGVPDRFSGSGAGTDFTLKISRVEAEDVGVYYCMQARQFPLTFGGGTKVEIKRTVAAPSVFIFPPSDEQLKSGTASVVCLLNNFYPREAKVQWKVDNALQSGNSQESVTEQDSKDSTYSLSSTLTLSKADYEKHKVYACEVTHQGLSSPVTKSFNRGEC
- % Max Inhibition, pTrkA: 66%
- % Max stimulation, pTrkA: 27%
- EC50 (nM), pTrkA: 0.28 nM
- IC50 (nM), pTrkA: 0.12 nM
- pTrkA counts per second, 0.1 pM mAb, no NGF (counts per second): 277000
- pTrkA counts per second, 1 pM mAb, no NGF (counts per second): 398000
- pTrkA counts per second, 10 pM mAb, no NGF (counts per second): 335000
- pTrkA counts per second, 100 pM mAb, no NGF (counts per second): 486000
- pTrkA counts per second, 1 nM mAb, no NGF (counts per second): 935000
- pTrkA counts per second, 10 nM mAb, no NGF (counts per second): 1.16e+06
- pTrkA counts per second, 100 nM mAb, no NGF (counts per second): 994000
- pTrkA counts per second, 1 uM mAb, no NGF (counts per second): 1.02e+06
- pTrkA counts per second, NGF +0.1 pM mAb (counts per second): 2.56e+06
- pTrkA counts per second, NGF +1 pM mAb (counts per second): 2.79e+06
- pTrkA counts per second, NGF +10 pM mAb (counts per second): 2.68e+06
- pTrkA counts per second, NGF +100 pM mAb (counts per second): 2.01e+06
- pTrkA counts per second, NGF +1 nM mAb (counts per second): 1.35e+06
- pTrkA counts per second, NGF +10 nM mAb (counts per second): 1.2e+06
- pTrkA counts per second, NGF +100 nM mAb (counts per second): 1.44e+06
- pTrkA counts per second, NGF +1 uM mAb (counts per second): 971000

B2: mAb E (antibody, human IgG1, kappa)
heavy: EVQLVESGGGLVKPGGSLRLSCAASGFTFSGVSINWVRQAPGKGLEWVSSETTSSGTIYYADSVKGRFTISRDNAKNSLYLQMNSLRAEDTAVYYCARSYYYGMDVWGQGTTVTVSSASTKGPSVFPLAPSSKSTSGGTAALGCLVKDYFPEPVTVSWNSGALTSGVHTFPAVLQSSGLYSLSSVVTVPSSSLGTQTYICNVNHKPSNTKVDKRVEPKSCDKTHTCPPCPAPEAEGAPSVFLFPPKPKDTLMISRTPEVTCVVVDVSHEDPEVKFNWYVDGVEVHNAKTKPREEQYNSTYRVVSVLTVLHQDWLNGKEYKCKVSNKALPSSIEKTISKAKGQPREPQVYTLPPSREEMTKNQVSLTCLVKGFYPSDIAVEWESNGQPENNYKTTPPVLDSDGSFFLYSKLTVDKSRWQQGNVFSCSVMHEALHNHYTQKSLSLSPGK
light: DIVMTQTPLSSPVTLGQPASISCRSSQSLVHRQGNTYLSWLQQRPGQPPRLLIYKISNRFSGVPDRFSGSGAGTDFTLKISRVEAEDVGVYYCMQARQFPLTFGGGTKVEIKRTVAAPSVFIFPPSDEQLKSGTASVVCLLNNFYPREAKVQWKVDNALQSGNSQESVTEQDSKDSTYSLSSTLTLSKADYEKHKVYACEVTHQGLSSPVTKSFNRGEC
- % Inh., Human pTrkA: 56%
- % Max Inhibition, pTrkA: 57%
- % Max stimulation, pTrkA: 31%
- EC50 (nM), pTrkA: 0.29 nM
- IC50 (nM), pTrkA: 0.48 nM
- pTrkA counts per second, 0.1 pM mAb, no NGF (counts per second): 178000
- pTrkA counts per second, 1 pM mAb, no NGF (counts per second): 181000
- pTrkA counts per second, 10 pM mAb, no NGF (counts per second): 194000
- pTrkA counts per second, 100 pM mAb, no NGF (counts per second): 264000
- pTrkA counts per second, 1 nM mAb, no NGF (counts per second): 487000
- pTrkA counts per second, 10 nM mAb, no NGF (counts per second): 600000
- pTrkA counts per second, 100 nM mAb, no NGF (counts per second): 605000
- pTrkA counts per second, 1 uM mAb, no NGF (counts per second): 483000
- pTrkA counts per second, NGF +0.1 pM mAb (counts per second): 1.85e+06
- pTrkA counts per second, NGF +1 pM mAb (counts per second): 2.19e+06
- pTrkA counts per second, NGF +10 pM mAb (counts per second): 2.76e+06
- pTrkA counts per second, NGF +100 pM mAb (counts per second): 2.78e+06
- pTrkA counts per second, NGF +1 nM mAb (counts per second): 838000
- pTrkA counts per second, NGF +10 nM mAb (counts per second): 800000
- pTrkA counts per second, NGF +100 nM mAb (counts per second): 739000
- pTrkA counts per second, NGF +1 uM mAb (counts per second): 630000
